Results as given in patent US20110154538A1 (UNITED STATES OF AMERICA AS REPRESENTED BY THE SECRETARY OF …, published 2011).

Biological target: T1, Gal4 activation domain (AD) negative control (UniProt P04386 768-881)
T1 sequence: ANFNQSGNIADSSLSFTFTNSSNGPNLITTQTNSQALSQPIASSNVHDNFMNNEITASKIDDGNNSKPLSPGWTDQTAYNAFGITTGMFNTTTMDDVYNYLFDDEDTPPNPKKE
Assay: yeast two-hybrid, growth on selective medium

B1: AltMV-Po coat protein (other)
chain: MSTPFPQVTQEQIDAFTPHTTSNLLPSPEQLTTIASLLVAAKVPAASTTTIALELVNFCYDNGSSAYTVVVGPSSISGVSLSQVANIVKASGTSLRKFCRFFAPIIWNLRTDKTPPANWEANGFKPTEKFAAFDFFDGVENPAAMQPPGGLVRAPSQAERIANATNKQVNLFQAAAQDNNFASNSAFITKGQLSSNSPTIQYLPPPE
notes: also called AltMV-Po CP; CP-Po
binding result: no binding
